Test results from the RNAGym collection of RNA variant scans (doi:10.1021/acssynbio.7b00057).

B1: Pistol ribozyme (parent)
chain: GGGUCGUUGUUCCAUAAUCGCGUGGAUAUGGCACGCAAGUUUCUACCGGGCACCGUAAAUGUCCGACUGGAGCCGUUCGGGCGGCUAUAAACAGACCUCAGGCCCGAAGCGUGGCGGCACCUGCCGCCGGUGGUAAAAAAGAUCGGAAGAGCACACGUCU

Variants of: B1
Test: aptazyme ON/OFF ratio, guanine; higher = stronger switching; co-transcriptional cleavage with and without guanine

Row | Variant | aptazyme ON/OFF ratio
1 | GGGUCGAGCAGGGAUAAUCGCGUGGAUAUGGCACGCAAGUUUCUACCGGGCACCGUAAAUGUCCGACUGGAGCCGUUCGGGCGGCUAUAAACAGACCUCAGGCCCGAAGCGUGGCGGCACCUGCCGCCGGUGGUAAAAAAGAUCGGAAGAGCACACGUCU [U7A U8G G9C U10A U11G C12G C13G] | 1.72
2 | GGGUCGUUGUGAUAUAAUCGCGUGGAUAUGGCACGCAAGUUUCUACCGGGCACCGUAAAUGUCCGACUGGAGCCGUUCGGGCGGCUAUAAACAGACCUCAGGCCCGAAGCGUGGCGGCACCUGCCGCCGGUGGUAAAAAAGAUCGGAAGAGCACACGUCU [U11G C12A C13U] | 1.24
3 | GGGUCGGCAUUUGAUAAUCGCGUGGAUAUGGCACGCAAGUUUCUACCGGGCACCGUAAAUGUCCGACUGGAGCCGUUCGGGCGGCUAUAAACAGACCUCAGGCCCGAAGCGUGGCGGCACCUGCCGCCGGUGGUAAAAAAGAUCGGAAGAGCACACGUCU [U7G U8C G9A C12U C13G] | 1.02
4 | GGGUCGGCUUAUAAUAAUCGCGUGGAUAUGGCACGCAAGUUUCUACCGGGCACCGUAAAUGUCCGACUGGAGCCGUUCGGGCGGCUAUAAACAGACCUCAGGCCCGAAGCGUGGCGGCACCUGCCGCCGGUGGUAAAAAAGAUCGGAAGAGCACACGUCU [U7G U8C G9U U11A C12U C13A] | 1.46
5 | GGGUCGUCACAGUAUAAUCGCGUGGAUAUGGCACGCAAGUUUCUACCGGGCACCGUAAAUGUCCGACUGGAGCCGUUCGGGCGGCUAUAAACAGACCUCAGGCCCGAAGCGUGGCGGCACCUGCCGCCGGUGGUAAAAAAGAUCGGAAGAGCACACGUCU [U8C G9A U10C U11A C12G C13U] | 1.19
6 | GGGUCGCACUCUAAUAAUCGCGUGGAUAUGGCACGCAAGUUUCUACCGGGCACCGUAAAUGUCCGACUGGAGCCGUUCGGGCGGCUAUAAACAGACCUCAGGCCCGAAGCGUGGCGGCACCUGCCGCCGGUGGUAAAAAAGAUCGGAAGAGCACACGUCU [U7C U8A G9C U11C C12U C13A] | 1.11
7 | GGGUCGAACGCAGAUAAUCGCGUGGAUAUGGCACGCAAGUUUCUACCGGGCACCGUAAAUGUCCGACUGGAGCCGUUCGGGCGGCUAUAAACAGACCUCAGGCCCGAAGCGUGGCGGCACCUGCCGCCGGUGGUAAAAAAGAUCGGAAGAGCACACGUCU [U7A U8A G9C U10G U11C C12A C13G] | 1.08
8 | GGGUCGUUUACCAAUAAUCGCGUGGAUAUGGCACGCAAGUUUCUACCGGGCACCGUAAAUGUCCGACUGGAGCCGUUCGGGCGGCUAUAAACAGACCUCAGGCCCGAAGCGUGGCGGCACCUGCCGCCGGUGGUAAAAAAGAUCGGAAGAGCACACGUCU [G9U U10A U11C C13A] | 1.53
9 | GGGUCGUAUACCGAUAAUCGCGUGGAUAUGGCACGCAAGUUUCUACCGGGCACCGUAAAUGUCCGACUGGAGCCGUUCGGGCGGCUAUAAACAGACCUCAGGCCCGAAGCGUGGCGGCACCUGCCGCCGGUGGUAAAAAAGAUCGGAAGAGCACACGUCU [U8A G9U U10A U11C C13G] | 1.08
10 | GGGUCGUGAAUGCAUAAUCGCGUGGAUAUGGCACGCAAGUUUCUACCGGGCACCGUAAAUGUCCGACUGGAGCCGUUCGGGCGGCUAUAAACAGACCUCAGGCCCGAAGCGUGGCGGCACCUGCCGCCGGUGGUAAAAAAGAUCGGAAGAGCACACGUCU [U8G G9A U10A C12G] | 1.18
11 | GGGUCGUCCCUUUAUAAUCGCGUGGAUAUGGCACGCAAGUUUCUACCGGGCACCGUAAAUGUCCGACUGGAGCCGUUCGGGCGGCUAUAAACAGACCUCAGGCCCGAAGCGUGGCGGCACCUGCCGCCGGUGGUAAAAAAGAUCGGAAGAGCACACGUCU [U8C G9C U10C C12U C13U] | 1.06
12 | GGGUCGGUCAAAAAUAAUCGCGUGGAUAUGGCACGCAAGUUUCUACCGGGCACCGUAAAUGUCCGACUGGAGCCGUUCGGGCGGCUAUAAACAGACCUCAGGCCCGAAGCGUGGCGGCACCUGCCGCCGGUGGUAAAAAAGAUCGGAAGAGCACACGUCU [U7G G9C U10A U11A C12A C13A] | 1.36
13 | GGGUCGAUGACACAUAAUCGCGUGGAUAUGGCACGCAAGUUUCUACCGGGCACCGUAAAUGUCCGACUGGAGCCGUUCGGGCGGCUAUAAACAGACCUCAGGCCCGAAGCGUGGCGGCACCUGCCGCCGGUGGUAAAAAAGAUCGGAAGAGCACACGUCU [U7A U10A U11C C12A] | 1.08
14 | GGGUCGUCCUACCAUAAUCGCGUGGAUAUGGCACGCAAGUUUCUACCGGGCACCGUAAAUGUCCGACUGGAGCCGUUCGGGCGGCUAUAAACAGACCUCAGGCCCGAAGCGUGGCGGCACCUGCCGCCGGUGGUAAAAAAGAUCGGAAGAGCACACGUCU [U8C G9C U11A] | 1.18
15 | GGGUCGAGAACUUAUAAUCGCGUGGAUAUGGCACGCAAGUUUCUACCGGGCACCGUAAAUGUCCGACUGGAGCCGUUCGGGCGGCUAUAAACAGACCUCAGGCCCGAAGCGUGGCGGCACCUGCCGCCGGUGGUAAAAAAGAUCGGAAGAGCACACGUCU [U7A U8G G9A U10A U11C C12U C13U] | 1.26
16 | GGGUCGCCUAUCAAUAAUCGCGUGGAUAUGGCACGCAAGUUUCUACCGGGCACCGUAAAUGUCCGACUGGAGCCGUUCGGGCGGCUAUAAACAGACCUCAGGCCCGAAGCGUGGCGGCACCUGCCGCCGGUGGUAAAAAAGAUCGGAAGAGCACACGUCU [U7C U8C G9U U10A C13A] | 1.14
17 | GGGUCGCUGCGGGAUAAUCGCGUGGAUAUGGCACGCAAGUUUCUACCGGGCACCGUAAAUGUCCGACUGGAGCCGUUCGGGCGGCUAUAAACAGACCUCAGGCCCGAAGCGUGGCGGCACCUGCCGCCGGUGGUAAAAAAGAUCGGAAGAGCACACGUCU [U7C U10C U11G C12G C13G] | 1.16
18 | GGGUCGUAAAGGCAUAAUCGCGUGGAUAUGGCACGCAAGUUUCUACCGGGCACCGUAAAUGUCCGACUGGAGCCGUUCGGGCGGCUAUAAACAGACCUCAGGCCCGAAGCGUGGCGGCACCUGCCGCCGGUGGUAAAAAAGAUCGGAAGAGCACACGUCU [U8A G9A U10A U11G C12G] | 1.15

Row | Variant | aptazyme ON/OFF ratio
19 | GGGUCGUGAGUUCAUAAUCGCGUGGAUAUGGCACGCAAGUUUCUACCGGGCACCGUAAAUGUCCGACUGGAGCCGUUCGGGCGGCUAUAAACAGACCUCAGGCCCGAAGCGUGGCGGCACCUGCCGCCGGUGGUAAAAAAGAUCGGAAGAGCACACGUCU [U8G G9A U10G C12U] | 1.39
20 | GGGUCGGUUCUUUAUAAUCGCGUGGAUAUGGCACGCAAGUUUCUACCGGGCACCGUAAAUGUCCGACUGGAGCCGUUCGGGCGGCUAUAAACAGACCUCAGGCCCGAAGCGUGGCGGCACCUGCCGCCGGUGGUAAAAAAGAUCGGAAGAGCACACGUCU [U7G G9U U10C C12U C13U] | 1.34
21 | GGGUCGAAUUGUCAUAAUCGCGUGGAUAUGGCACGCAAGUUUCUACCGGGCACCGUAAAUGUCCGACUGGAGCCGUUCGGGCGGCUAUAAACAGACCUCAGGCCCGAAGCGUGGCGGCACCUGCCGCCGGUGGUAAAAAAGAUCGGAAGAGCACACGUCU [U7A U8A G9U U11G C12U] | 1.31
22 | GGGUCGAAAGAAGAUAAUCGCGUGGAUAUGGCACGCAAGUUUCUACCGGGCACCGUAAAUGUCCGACUGGAGCCGUUCGGGCGGCUAUAAACAGACCUCAGGCCCGAAGCGUGGCGGCACCUGCCGCCGGUGGUAAAAAAGAUCGGAAGAGCACACGUCU [U7A U8A G9A U10G U11A C12A C13G] | 1.18
23 | GGGUCGCGAGAAUAUAAUCGCGUGGAUAUGGCACGCAAGUUUCUACCGGGCACCGUAAAUGUCCGACUGGAGCCGUUCGGGCGGCUAUAAACAGACCUCAGGCCCGAAGCGUGGCGGCACCUGCCGCCGGUGGUAAAAAAGAUCGGAAGAGCACACGUCU [U7C U8G G9A U10G U11A C12A C13U] | 1.22
24 | GGGUCGGCGGGCUAUAAUCGCGUGGAUAUGGCACGCAAGUUUCUACCGGGCACCGUAAAUGUCCGACUGGAGCCGUUCGGGCGGCUAUAAACAGACCUCAGGCCCGAAGCGUGGCGGCACCUGCCGCCGGUGGUAAAAAAGAUCGGAAGAGCACACGUCU [U7G U8C U10G U11G C13U] | 1.3
25 | GGGUCGAGCCAGAAUAAUCGCGUGGAUAUGGCACGCAAGUUUCUACCGGGCACCGUAAAUGUCCGACUGGAGCCGUUCGGGCGGCUAUAAACAGACCUCAGGCCCGAAGCGUGGCGGCACCUGCCGCCGGUGGUAAAAAAGAUCGGAAGAGCACACGUCU [U7A U8G G9C U10C U11A C12G C13A] | 1.23
26 | GGGUCGACCGGGAAUAAUCGCGUGGAUAUGGCACGCAAGUUUCUACCGGGCACCGUAAAUGUCCGACUGGAGCCGUUCGGGCGGCUAUAAACAGACCUCAGGCCCGAAGCGUGGCGGCACCUGCCGCCGGUGGUAAAAAAGAUCGGAAGAGCACACGUCU [U7A U8C G9C U10G U11G C12G C13A] | 1.08
27 | GGGUCGAUUUCCCAUAAUCGCGUGGAUAUGGCACGCAAGUUUCUACCGGGCACCGUAAAUGUCCGACUGGAGCCGUUCGGGCGGCUAUAAACAGACCUCAGGCCCGAAGCGUGGCGGCACCUGCCGCCGGUGGUAAAAAAGAUCGGAAGAGCACACGUCU [U7A G9U U11C] | 1.15
28 | GGGUCGCGAGCAUAUAAUCGCGUGGAUAUGGCACGCAAGUUUCUACCGGGCACCGUAAAUGUCCGACUGGAGCCGUUCGGGCGGCUAUAAACAGACCUCAGGCCCGAAGCGUGGCGGCACCUGCCGCCGGUGGUAAAAAAGAUCGGAAGAGCACACGUCU [U7C U8G G9A U10G U11C C12A C13U] | 1.25
29 | GGGUCGGACUUCAAUAAUCGCGUGGAUAUGGCACGCAAGUUUCUACCGGGCACCGUAAAUGUCCGACUGGAGCCGUUCGGGCGGCUAUAAACAGACCUCAGGCCCGAAGCGUGGCGGCACCUGCCGCCGGUGGUAAAAAAGAUCGGAAGAGCACACGUCU [U7G U8A G9C C13A] | 1.04
30 | GGGUCGCUAGAUCAUAAUCGCGUGGAUAUGGCACGCAAGUUUCUACCGGGCACCGUAAAUGUCCGACUGGAGCCGUUCGGGCGGCUAUAAACAGACCUCAGGCCCGAAGCGUGGCGGCACCUGCCGCCGGUGGUAAAAAAGAUCGGAAGAGCACACGUCU [U7C G9A U10G U11A C12U] | 1.05
31 | GGGUCGCAACUAGAUAAUCGCGUGGAUAUGGCACGCAAGUUUCUACCGGGCACCGUAAAUGUCCGACUGGAGCCGUUCGGGCGGCUAUAAACAGACCUCAGGCCCGAAGCGUGGCGGCACCUGCCGCCGGUGGUAAAAAAGAUCGGAAGAGCACACGUCU [U7C U8A G9A U10C C12A C13G] | 1.16
32 | GGGUCGUUUCACGAUAAUCGCGUGGAUAUGGCACGCAAGUUUCUACCGGGCACCGUAAAUGUCCGACUGGAGCCGUUCGGGCGGCUAUAAACAGACCUCAGGCCCGAAGCGUGGCGGCACCUGCCGCCGGUGGUAAAAAAGAUCGGAAGAGCACACGUCU [G9U U10C U11A C13G] | 1.09
33 | GGGUCGGGUCGCGAUAAUCGCGUGGAUAUGGCACGCAAGUUUCUACCGGGCACCGUAAAUGUCCGACUGGAGCCGUUCGGGCGGCUAUAAACAGACCUCAGGCCCGAAGCGUGGCGGCACCUGCCGCCGGUGGUAAAAAAGAUCGGAAGAGCACACGUCU [U7G U8G G9U U10C U11G C13G] | 1.21
34 | GGGUCGGCCAGUUAUAAUCGCGUGGAUAUGGCACGCAAGUUUCUACCGGGCACCGUAAAUGUCCGACUGGAGCCGUUCGGGCGGCUAUAAACAGACCUCAGGCCCGAAGCGUGGCGGCACCUGCCGCCGGUGGUAAAAAAGAUCGGAAGAGCACACGUCU [U7G U8C G9C U10A U11G C12U C13U] | 1.17
35 | GGGUCGCUCUGAUAUAAUCGCGUGGAUAUGGCACGCAAGUUUCUACCGGGCACCGUAAAUGUCCGACUGGAGCCGUUCGGGCGGCUAUAAACAGACCUCAGGCCCGAAGCGUGGCGGCACCUGCCGCCGGUGGUAAAAAAGAUCGGAAGAGCACACGUCU [U7C G9C U11G C12A C13U] | 1.07
36 | GGGUCGUCGCGGGAUAAUCGCGUGGAUAUGGCACGCAAGUUUCUACCGGGCACCGUAAAUGUCCGACUGGAGCCGUUCGGGCGGCUAUAAACAGACCUCAGGCCCGAAGCGUGGCGGCACCUGCCGCCGGUGGUAAAAAAGAUCGGAAGAGCACACGUCU [U8C U10C U11G C12G C13G] | 1.15
